In US20100129369A1 (Eli Lilly, published 2010):

Assays:
RON-ECD-Fc [1] = molecular target: T1, RON-ECD-Fc (human, UniProt Q04912 25-957); experiment: ELISA, coated ECD-Fc, antibody 0.000 ng/mL
T1 construct: extracellular domain; Bought reagent; not shown: Fc part of the bought fusion
T1 sequence (looked up): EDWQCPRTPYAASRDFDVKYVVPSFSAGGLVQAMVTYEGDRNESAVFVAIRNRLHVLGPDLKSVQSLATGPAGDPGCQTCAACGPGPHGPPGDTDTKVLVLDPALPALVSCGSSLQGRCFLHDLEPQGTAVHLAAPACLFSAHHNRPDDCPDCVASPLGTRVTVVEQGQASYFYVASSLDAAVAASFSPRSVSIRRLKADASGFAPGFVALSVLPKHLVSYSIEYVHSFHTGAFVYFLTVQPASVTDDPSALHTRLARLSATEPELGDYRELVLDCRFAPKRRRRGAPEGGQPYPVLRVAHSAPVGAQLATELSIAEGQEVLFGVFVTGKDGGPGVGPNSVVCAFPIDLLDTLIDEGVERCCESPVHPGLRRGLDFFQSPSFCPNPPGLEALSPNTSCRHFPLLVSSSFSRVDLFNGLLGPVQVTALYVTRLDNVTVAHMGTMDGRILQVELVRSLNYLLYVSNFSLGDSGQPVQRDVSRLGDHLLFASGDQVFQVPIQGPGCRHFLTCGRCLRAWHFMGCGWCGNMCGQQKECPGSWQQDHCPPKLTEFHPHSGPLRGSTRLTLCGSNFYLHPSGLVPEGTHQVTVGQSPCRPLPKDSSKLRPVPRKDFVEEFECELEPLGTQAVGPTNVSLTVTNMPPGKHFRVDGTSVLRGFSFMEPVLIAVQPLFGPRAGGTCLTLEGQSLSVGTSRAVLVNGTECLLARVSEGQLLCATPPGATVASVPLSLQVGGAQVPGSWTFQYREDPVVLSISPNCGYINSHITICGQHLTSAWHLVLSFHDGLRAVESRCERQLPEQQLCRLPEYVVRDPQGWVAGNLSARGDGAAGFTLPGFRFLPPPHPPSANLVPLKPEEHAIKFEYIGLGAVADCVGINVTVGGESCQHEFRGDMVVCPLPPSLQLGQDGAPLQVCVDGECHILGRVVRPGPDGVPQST
Method: (§1) Wells of 96-well EIA/RIA high binding plates (Costar, #2592) are coated with 100 μL of 1 μg/mL human c-Met extracellular domain (ECD)-Fc-Flis fusion (SEQ ID NO:72), RON-ECD-Fc (R&D Systems, #1947-MS), or PlexinA2-ECD-Fc (Abnova, Taipei, Taiwan #H00005362-P01) in coating buffer (BioFX Labs, # COAT-1000-01) overnight at 4° C. […] After the plates are washed, 100 μL/well of substrate solution (BioFx, #TMBW-1000-01) are added and the plates are incubated for 10 min. at room temperature. 100 μL/well of stop solution (BioFx, # LSTP-1000-01) are added to stop the reaction. The colorimetric signals are developed and read at 450 nm using a SpectraMax 190 plate reader (Molecular Devices, Sunnyvale, Calif.). c-Met antibody binding to c-Met, RON and PlexinA2 ECDs is proportional to color signal production.

PlexinA2-ECD-Fc [2] = molecular target: T2, PlexinA2-ECD-Fc (human, UniProt O75051 35-1237); experiment: ELISA, coated ECD-Fc, antibody 0.000 ng/mL
T2 construct: extracellular domain; Bought reagent
T2 sequence (looked up): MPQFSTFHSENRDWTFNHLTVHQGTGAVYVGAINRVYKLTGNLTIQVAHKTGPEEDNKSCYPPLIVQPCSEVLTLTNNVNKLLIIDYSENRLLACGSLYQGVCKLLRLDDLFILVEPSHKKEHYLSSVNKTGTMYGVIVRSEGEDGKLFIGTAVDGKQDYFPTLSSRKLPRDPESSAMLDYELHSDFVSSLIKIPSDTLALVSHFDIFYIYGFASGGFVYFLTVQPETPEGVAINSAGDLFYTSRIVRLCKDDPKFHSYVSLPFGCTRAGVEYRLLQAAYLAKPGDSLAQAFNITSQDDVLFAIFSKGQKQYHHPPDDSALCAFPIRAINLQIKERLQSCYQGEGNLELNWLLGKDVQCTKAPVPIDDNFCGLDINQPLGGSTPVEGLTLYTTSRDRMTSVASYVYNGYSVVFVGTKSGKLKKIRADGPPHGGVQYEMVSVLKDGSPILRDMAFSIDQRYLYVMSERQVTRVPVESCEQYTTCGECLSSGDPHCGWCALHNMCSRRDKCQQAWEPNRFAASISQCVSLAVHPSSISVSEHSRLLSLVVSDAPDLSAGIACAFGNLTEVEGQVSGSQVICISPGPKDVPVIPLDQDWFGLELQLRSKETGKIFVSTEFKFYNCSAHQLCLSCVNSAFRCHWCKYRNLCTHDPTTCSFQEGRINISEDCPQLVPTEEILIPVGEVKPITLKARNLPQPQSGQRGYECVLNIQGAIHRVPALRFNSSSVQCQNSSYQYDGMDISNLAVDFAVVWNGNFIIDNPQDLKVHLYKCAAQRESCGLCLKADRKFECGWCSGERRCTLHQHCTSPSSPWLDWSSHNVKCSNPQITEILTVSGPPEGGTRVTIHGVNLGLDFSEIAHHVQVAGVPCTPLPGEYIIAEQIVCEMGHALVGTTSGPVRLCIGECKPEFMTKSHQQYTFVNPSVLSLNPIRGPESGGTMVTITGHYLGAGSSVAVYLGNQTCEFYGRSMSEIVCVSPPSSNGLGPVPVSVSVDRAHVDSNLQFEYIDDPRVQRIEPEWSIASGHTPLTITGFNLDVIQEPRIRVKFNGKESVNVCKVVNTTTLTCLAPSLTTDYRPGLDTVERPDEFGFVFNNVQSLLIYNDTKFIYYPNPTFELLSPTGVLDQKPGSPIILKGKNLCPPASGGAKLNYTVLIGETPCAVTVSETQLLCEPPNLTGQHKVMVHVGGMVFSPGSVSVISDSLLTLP
Method: as §1

Human c-Met-Flis-Fc ECD [3] = molecular target: T3, Human c-Met-Flis-Fc ECD (human); experiment: ELISA, coated ECD-Fc, antibody 0.000 ng/mL
T3 construct: also called human c-Met extracellular domain (ECD)-Fc-Flis fusion; Human cMet-ECD-Fc-Flis
T3 sequence (chain, as listed by the source limits assumed): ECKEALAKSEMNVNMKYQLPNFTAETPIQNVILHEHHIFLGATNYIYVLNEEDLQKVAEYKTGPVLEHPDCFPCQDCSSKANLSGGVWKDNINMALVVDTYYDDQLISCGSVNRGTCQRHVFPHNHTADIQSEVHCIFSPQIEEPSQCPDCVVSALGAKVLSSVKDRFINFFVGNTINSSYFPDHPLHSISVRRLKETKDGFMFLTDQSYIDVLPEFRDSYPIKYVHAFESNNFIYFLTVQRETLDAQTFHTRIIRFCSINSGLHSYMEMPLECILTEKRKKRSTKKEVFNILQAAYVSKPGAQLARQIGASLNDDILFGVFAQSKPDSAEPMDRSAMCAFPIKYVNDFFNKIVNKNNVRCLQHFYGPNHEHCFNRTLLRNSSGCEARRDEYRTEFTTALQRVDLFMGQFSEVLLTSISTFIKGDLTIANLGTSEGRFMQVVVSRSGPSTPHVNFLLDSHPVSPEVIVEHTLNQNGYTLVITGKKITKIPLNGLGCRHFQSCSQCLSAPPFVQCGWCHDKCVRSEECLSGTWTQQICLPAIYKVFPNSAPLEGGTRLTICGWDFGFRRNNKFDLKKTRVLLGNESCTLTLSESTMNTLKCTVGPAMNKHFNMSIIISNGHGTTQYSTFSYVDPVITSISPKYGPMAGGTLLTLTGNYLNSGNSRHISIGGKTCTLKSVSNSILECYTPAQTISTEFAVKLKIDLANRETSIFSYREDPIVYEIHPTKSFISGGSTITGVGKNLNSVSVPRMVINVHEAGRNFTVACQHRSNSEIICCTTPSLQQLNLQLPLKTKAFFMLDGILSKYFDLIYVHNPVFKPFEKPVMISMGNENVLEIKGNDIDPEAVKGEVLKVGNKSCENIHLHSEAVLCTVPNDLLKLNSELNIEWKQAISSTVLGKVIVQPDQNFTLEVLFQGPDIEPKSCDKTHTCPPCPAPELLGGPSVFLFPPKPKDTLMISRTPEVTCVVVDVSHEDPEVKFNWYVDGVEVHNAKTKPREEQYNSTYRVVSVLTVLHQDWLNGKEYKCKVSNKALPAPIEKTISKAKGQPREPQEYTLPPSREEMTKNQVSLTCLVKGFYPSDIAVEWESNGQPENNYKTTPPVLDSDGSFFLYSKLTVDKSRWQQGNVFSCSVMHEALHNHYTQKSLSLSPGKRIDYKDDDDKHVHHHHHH
Method: as §1

RON-ECD-Fc [4] = molecular target: T1, RON-ECD-Fc; experiment: ELISA, coated ECD-Fc, antibody 0.002 ng/mL
Method: as §1

PlexinA2-ECD-Fc [5] = molecular target: T2, PlexinA2-ECD-Fc; experiment: ELISA, coated ECD-Fc, antibody 0.002 ng/mL
Method: as §1

Human c-Met-Flis-Fc ECD [6] = molecular target: T3, Human c-Met-Flis-Fc ECD; experiment: ELISA, coated ECD-Fc, antibody 0.002 ng/mL
Method: as §1

RON-ECD-Fc [7] = molecular target: T1, RON-ECD-Fc; experiment: ELISA, coated ECD-Fc, antibody 462.963 ng/mL
Method: as §1

Average A450 nm (RON-ECD-Fc [1]): 0.11 A450 nm
Average A450 nm (PlexinA2-ECD-Fc [2]): 0.109 A450 nm
Average A450 nm (Human c-Met-Flis-Fc ECD [3]): 0.322 A450 nm
Average A450 nm (RON-ECD-Fc [4]): 0.106 A450 nm
Average A450 nm (PlexinA2-ECD-Fc [5]): 0.099 A450 nm
Average A450 nm (Human c-Met-Flis-Fc ECD [6]): 0.326 A450 nm
Average A450 nm (RON-ECD-Fc [7]): 0.088 A450 nm
B1: C8-6 (antibody, human IgG2, kappa, V domains shown)
VH: QVQLVQSGAEVKKPGASVKVSCKASGYTFTDYYMHWVRQAPGQGLEWMGRVNPNRGGTTYNQKFEGRVTMTTDTSTSTAYMELRSLRSDDTAVYYCARTNWLDYWGQGTTVTVSS
VL: DIQMTQSPSSLSASVGDRVTITCSVSSSVSSIYLHWYQQKPGKAPKLLIYSTSNLASGVPSRFSGSGSGTDFTLTISSLQPEDFATYYCIQYSGYPLTFGGGTKVEIKR
notes: Called IgG4, kappa; also called Mab C8-6
